Values belong to the binder of their own block, whether it stands above or below them. Non-standard residues stand in square brackets, D forms with d. No end group written: not given here. *: point of attachment. Desaminotyrosyl = O=C(CCc1ccc(O)cc1)*; NMeY = CN[C@@H](Cc1ccc(O)cc1)C(=O)O; Agmatine = N=C(N)NCCCCN*; Nle = CCCC[C@H](N)C(=O)O; Orn = NCCC[C@H](N)C(=O)O; dAbu = CC[C@@H](N)C(=O)O; Abu = CC[C@H](N)C(=O)O; Aoc = NCCCCCCCC(=O)O; GABA = NCCCC(=O)O
Key:
[1] = target: T1, human GHRH receptor (human pituitary membrane homogenates) (human, UniProt Q02643 23-423); experiment: radioligand competition vs 125I-JV-1-42 (0.2 nM), human pituitary membranes
T1 construct: whole, on cells; Native receptor in human pituitary membrane homogenates, not on intact cells; also called hGHRH receptor
T1 sequence (looked up): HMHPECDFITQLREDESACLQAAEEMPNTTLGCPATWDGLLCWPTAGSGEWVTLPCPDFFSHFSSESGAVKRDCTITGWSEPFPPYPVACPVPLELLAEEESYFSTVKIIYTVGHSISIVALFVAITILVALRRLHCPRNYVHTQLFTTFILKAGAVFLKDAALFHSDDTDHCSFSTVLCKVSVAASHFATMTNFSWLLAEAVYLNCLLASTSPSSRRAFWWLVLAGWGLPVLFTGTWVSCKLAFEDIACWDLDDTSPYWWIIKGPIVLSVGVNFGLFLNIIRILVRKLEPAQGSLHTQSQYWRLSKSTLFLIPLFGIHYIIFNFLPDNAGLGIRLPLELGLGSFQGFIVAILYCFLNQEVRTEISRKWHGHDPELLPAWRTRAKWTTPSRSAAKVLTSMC
Source text: Normal human pituitaries were purchased from the National Hormone and Peptide Program (A. F. Parlow, Los Angeles, County Harbor-UCLA Medical Center, Torrance, Calif.).

[2] = target: T2, human GHRH receptor (human pituitary membrane homogenates) (human), Q02643; experiment: as above
T2 chain: T1 sequence (looked up)

B1: P-21303 [N-Me-Tyr^1, D-Ala^2, Orn^12, Abu^15, Orn^21, Nle^27, Asp^28, Amc^30]hGHRH(1-30)NH2 (peptide)
peptide: [NMeY][dA]DAIFTNSYR[Orn]VL[Abu]QLSAR[Orn]LLQDI[Nle]DR[Aoc]-NH2
modifications: N-terminus assumed
SMILES: CCCC[C@H](NC(=O)[C@@H](NC(=O)[C@H](CC(=O)O)NC(=O)[C@H](CCC(N)=O)NC(=O)[C@H](CC(C)C)NC(=O)[C@H](CC(C)C)NC(=O)[C@H](CCCN)NC(=O)[C@H](CCCNC(=N)N)NC(=O)[C@H](C)NC(=O)[C@H](CO)NC(=O)[C@H](CC(C)C)NC(=O)[C@H](CCC(N)=O)NC(=O)[C@H](CC)NC(=O)[C@H](CC(C)C)NC(=O)[C@@H](NC(=O)[C@H](CCCN)NC(=O)[C@H](CCCNC(=N)N)NC(=O)[C@H](Cc1ccc(O)cc1)NC(=O)[C@H](CO)NC(=O)[C@H](CC(N)=O)NC(=O)[C@@H](NC(=O)[C@H](Cc1ccccc1)NC(=O)[C@@H](NC(=O)[C@H](C)NC(=O)[C@H](CC(=O)O)NC(=O)[C@@H](C)NC(=O)[C@H](Cc1ccc(O)cc1)NC)[C@@H](C)CC)[C@@H](C)O)C(C)C)[C@@H](C)CC)C(=O)N[C@@H](CC(=O)O)C(=O)N[C@@H](CCCNC(=N)N)C(=O)NCCCCCCCC(N)=O
notes: also called Peptide 21303
- Relative affinity (Binding potency) vs JI-38 [1]: 2.32 fold

B3: P-21300 [Dat^1, D-Ala^2, Orn^12, Abu^15, Orn^21, Nle^27, Asp^28, Amc^30]hGHRH(1-30)NH2 (peptide)
peptide: [Desaminotyrosyl][dA]DAIFTNSYR[Orn]VL[Abu]QLSAR[Orn]LLQDI[Nle]DR[Aoc]-NH2
SMILES: CCCC[C@H](NC(=O)[C@@H](NC(=O)[C@H](CC(=O)O)NC(=O)[C@H](CCC(N)=O)NC(=O)[C@H](CC(C)C)NC(=O)[C@H](CC(C)C)NC(=O)[C@H](CCCN)NC(=O)[C@H](CCCNC(=N)N)NC(=O)[C@H](C)NC(=O)[C@H](CO)NC(=O)[C@H](CC(C)C)NC(=O)[C@H](CCC(N)=O)NC(=O)[C@H](CC)NC(=O)[C@H](CC(C)C)NC(=O)[C@@H](NC(=O)[C@H](CCCN)NC(=O)[C@H](CCCNC(=N)N)NC(=O)[C@H](Cc1ccc(O)cc1)NC(=O)[C@H](CO)NC(=O)[C@H](CC(N)=O)NC(=O)[C@@H](NC(=O)[C@H](Cc1ccccc1)NC(=O)[C@@H](NC(=O)[C@H](C)NC(=O)[C@H](CC(=O)O)NC(=O)[C@@H](C)NC(=O)CCc1ccc(O)cc1)[C@@H](C)CC)[C@@H](C)O)C(C)C)[C@@H](C)CC)C(=O)N[C@@H](CC(=O)O)C(=O)N[C@@H](CCCNC(=N)N)C(=O)NCCCCCCCC(N)=O
notes: also called Peptide 21300
- Relative affinity (Binding potency) vs JI-38 [1]: 1.2 fold

B4: P-25503 [N-Me-Tyr^1, Abu^2, Orn^12, Abu^15, Orn^21, Nle^27, Gab^30]hGHRH(1-30)NH2 (peptide)
chain: [NMeY][Abu]DAIFTNSYR[Orn]VL[Abu]QLSAR[Orn]LLQDI[Nle]SR[GABA]-NH2
modifications: N-terminus assumed
SMILES: CCCC[C@H](NC(=O)[C@@H](NC(=O)[C@H](CC(=O)O)NC(=O)[C@H](CCC(N)=O)NC(=O)[C@H](CC(C)C)NC(=O)[C@H](CC(C)C)NC(=O)[C@H](CCCN)NC(=O)[C@H](CCCNC(=N)N)NC(=O)[C@H](C)NC(=O)[C@H](CO)NC(=O)[C@H](CC(C)C)NC(=O)[C@H](CCC(N)=O)NC(=O)[C@H](CC)NC(=O)[C@H](CC(C)C)NC(=O)[C@@H](NC(=O)[C@H](CCCN)NC(=O)[C@H](CCCNC(=N)N)NC(=O)[C@H](Cc1ccc(O)cc1)NC(=O)[C@H](CO)NC(=O)[C@H](CC(N)=O)NC(=O)[C@@H](NC(=O)[C@H](Cc1ccccc1)NC(=O)[C@@H](NC(=O)[C@H](C)NC(=O)[C@H](CC(=O)O)NC(=O)[C@H](CC)NC(=O)[C@H](Cc1ccc(O)cc1)NC)[C@@H](C)CC)[C@@H](C)O)C(C)C)[C@@H](C)CC)C(=O)N[C@@H](CO)C(=O)N[C@@H](CCCNC(=N)N)C(=O)NCCCC(N)=O
- IC50 [2]: 1.18 nM
- Relative affinity (Binding potency) vs JI-38 [2]: 3.67 fold

B6: P-20351 [Ac-N-Me-Tyr^1, D-Ala^2, Gln^8, Orn^12, Abu^15, Orn^21, Nle^27, Asp^28, Agm^29]hGHRH(1-29)NH2 (peptide)
peptide: Ac-[NMeY][dA]DAIFTQSYR[Orn]VL[Abu]QLSAR[Orn]LLQDI[Nle]D[Agmatine]
SMILES: CCCC[C@H](NC(=O)[C@@H](NC(=O)[C@H](CC(=O)O)NC(=O)[C@H](CCC(N)=O)NC(=O)[C@H](CC(C)C)NC(=O)[C@H](CC(C)C)NC(=O)[C@H](CCCN)NC(=O)[C@H](CCCNC(=N)N)NC(=O)[C@H](C)NC(=O)[C@H](CO)NC(=O)[C@H](CC(C)C)NC(=O)[C@H](CCC(N)=O)NC(=O)[C@H](CC)NC(=O)[C@H](CC(C)C)NC(=O)[C@@H](NC(=O)[C@H](CCCN)NC(=O)[C@H](CCCNC(=N)N)NC(=O)[C@H](Cc1ccc(O)cc1)NC(=O)[C@H](CO)NC(=O)[C@H](CCC(N)=O)NC(=O)[C@@H](NC(=O)[C@H](Cc1ccccc1)NC(=O)[C@@H](NC(=O)[C@H](C)NC(=O)[C@H](CC(=O)O)NC(=O)[C@@H](C)NC(=O)[C@H](Cc1ccc(O)cc1)N(C)C(C)=O)[C@@H](C)CC)[C@@H](C)O)C(C)C)[C@@H](C)CC)C(=O)N[C@@H](CC(=O)O)C(=O)NCCCCNC(=N)N
notes: also called Peptide 20351
- Relative affinity (Binding potency) vs JI-38 [1]: 1.26 fold

B7: P-25504 [Dat^1, D-Abu^2, Orn^12, Abu^15, Orn^21, Nle^27, Gab^30]hGHRH(1-30)NH2 (peptide)
peptide: [Desaminotyrosyl][dAbu]DAIFTNSYR[Orn]VL[Abu]QLSAR[Orn]LLQDI[Nle]SR[GABA]-NH2
SMILES: CCCC[C@H](NC(=O)[C@@H](NC(=O)[C@H](CC(=O)O)NC(=O)[C@H](CCC(N)=O)NC(=O)[C@H](CC(C)C)NC(=O)[C@H](CC(C)C)NC(=O)[C@H](CCCN)NC(=O)[C@H](CCCNC(=N)N)NC(=O)[C@H](C)NC(=O)[C@H](CO)NC(=O)[C@H](CC(C)C)NC(=O)[C@H](CCC(N)=O)NC(=O)[C@H](CC)NC(=O)[C@H](CC(C)C)NC(=O)[C@@H](NC(=O)[C@H](CCCN)NC(=O)[C@H](CCCNC(=N)N)NC(=O)[C@H](Cc1ccc(O)cc1)NC(=O)[C@H](CO)NC(=O)[C@H](CC(N)=O)NC(=O)[C@@H](NC(=O)[C@H](Cc1ccccc1)NC(=O)[C@@H](NC(=O)[C@H](C)NC(=O)[C@H](CC(=O)O)NC(=O)[C@@H](CC)NC(=O)CCc1ccc(O)cc1)[C@@H](C)CC)[C@@H](C)O)C(C)C)[C@@H](C)CC)C(=O)N[C@@H](CO)C(=O)N[C@@H](CCCNC(=N)N)C(=O)NCCCC(N)=O
notes: also called Peptide 25504
- Relative affinity (Binding potency) vs JI-38 [1]: 3.02 fold

B10: P-20361 [N-Me-Tyr^1, D-Ala^2, Gln^8, Orn^12, Abu^15, Orn^21, Nle^27, Asp^28, Agm^29]hGHRH(1-29)NH2 (peptide)
peptide: [NMeY][dA]DAIFTQSYR[Orn]VL[Abu]QLSAR[Orn]LLQDI[Nle]D[Agmatine]
notes: also called Peptide 20361
- Relative affinity (Binding potency) vs JI-38 [1]: 5.3 fold

Continued, values first:

- IC50 [2]: 3.02 nM
- Relative affinity (Binding potency) vs JI-38 [2]: 1.44 fold
B2: P-27415 [N-Me-Tyr^1, Orn^12, Abu^15, Orn^21, Nle^27, Gab^30]hGHRH(1-30)NH-CH3 (peptide)
chain: [NMeY]ADAIFTNSYR[Orn]VL[Abu]QLSAR[Orn]LLQDI[Nle]SR[GABA]-NHMe

- IC50 [2]: 1.08 nM
- Relative affinity (Binding potency) vs JI-38 [2]: 4.03 fold
B5: P-27405 [N-Me-Tyr^1, Gln^8, Orn^12, Abu^15, Orn^21, Nle^27]hGHRH(1-29)NH-CH3 (peptide)
chain: [NMeY]ADAIFTQSYR[Orn]VL[Abu]QLSAR[Orn]LLQDI[Nle]SR-NHMe

- IC50 [2]: 2.99 nM
- Relative affinity (Binding potency) vs JI-38 [2]: 1.45 fold
B8: P-21301 [N-Me-Tyr^1, Orn^12, Abu^15, Orn^21, Nle^27, Asp^28, Amc^30]hGHRH(1-30)NH2 (peptide)
chain: [NMeY]ADAIFTNSYR[Orn]VL[Abu]QLSAR[Orn]LLQDI[Nle]DR[Aoc]-NH2
modifications: N-terminus assumed
SMILES: CCCC[C@H](NC(=O)[C@@H](NC(=O)[C@H](CC(=O)O)NC(=O)[C@H](CCC(N)=O)NC(=O)[C@H](CC(C)C)NC(=O)[C@H](CC(C)C)NC(=O)[C@H](CCCN)NC(=O)[C@H](CCCNC(=N)N)NC(=O)[C@H](C)NC(=O)[C@H](CO)NC(=O)[C@H](CC(C)C)NC(=O)[C@H](CCC(N)=O)NC(=O)[C@H](CC)NC(=O)[C@H](CC(C)C)NC(=O)[C@@H](NC(=O)[C@H](CCCN)NC(=O)[C@H](CCCNC(=N)N)NC(=O)[C@H](Cc1ccc(O)cc1)NC(=O)[C@H](CO)NC(=O)[C@H](CC(N)=O)NC(=O)[C@@H](NC(=O)[C@H](Cc1ccccc1)NC(=O)[C@@H](NC(=O)[C@H](C)NC(=O)[C@H](CC(=O)O)NC(=O)[C@H](C)NC(=O)[C@H](Cc1ccc(O)cc1)NC)[C@@H](C)CC)[C@@H](C)O)C(C)C)[C@@H](C)CC)C(=O)N[C@@H](CC(=O)O)C(=O)N[C@@H](CCCNC(=N)N)C(=O)NCCCCCCCC(N)=O

- Relative affinity (Binding potency) vs JI-38 [2]: 3.57 fold
B9: P-29703 [N-Me-Tyr^1, Gln^8, Orn^12, Abu^15, Orn^21, Nle^27, Gln-Gab^30]hGHRH(1-30)NH2 (peptide)
chain: [NMeY]ADAIFTQSYR[Orn]VL[Abu]QLSAR[Orn]LLQDI[Nle]SRQ[GABA]-NH2
modifications: N-terminus assumed
SMILES: CCCC[C@H](NC(=O)[C@@H](NC(=O)[C@H](CC(=O)O)NC(=O)[C@H](CCC(N)=O)NC(=O)[C@H](CC(C)C)NC(=O)[C@H](CC(C)C)NC(=O)[C@H](CCCN)NC(=O)[C@H](CCCNC(=N)N)NC(=O)[C@H](C)NC(=O)[C@H](CO)NC(=O)[C@H](CC(C)C)NC(=O)[C@H](CCC(N)=O)NC(=O)[C@H](CC)NC(=O)[C@H](CC(C)C)NC(=O)[C@@H](NC(=O)[C@H](CCCN)NC(=O)[C@H](CCCNC(=N)N)NC(=O)[C@H](Cc1ccc(O)cc1)NC(=O)[C@H](CO)NC(=O)[C@H](CCC(N)=O)NC(=O)[C@@H](NC(=O)[C@H](Cc1ccccc1)NC(=O)[C@@H](NC(=O)[C@H](C)NC(=O)[C@H](CC(=O)O)NC(=O)[C@H](C)NC(=O)[C@H](Cc1ccc(O)cc1)NC)[C@@H](C)CC)[C@@H](C)O)C(C)C)[C@@H](C)CC)C(=O)N[C@@H](CO)C(=O)N[C@@H](CCCNC(=N)N)C(=O)N[C@@H](CCC(N)=O)C(=O)NCCCC(N)=O

— patent US20140193378A1 (UNIVERSITY OF MIAMI, published 2014)
